{
  "source": "patent US20040248275A1",
  "about": "“Engineered bacterial aggregates” (priority 2003, published 2004)",
  "molecules": {"B1": {"name": "Lentil lectin (protein, UniProt P02870 31-210; P02870 218-269, looked up)", "Lectin beta chain": "TETTSFSITKFSPDQKNLIFQGDGYTTKGKLTLTKAVKSTVGRALYSTPIHIWDRDTGNVANFVTSFTFVIDAPSSYNVADEFTFFIAPVDTKPQTGGGYLGVFNSKEYDKTSQTVAVEFDTFYNAAWDPSNKERHIGIDVNSIKSVNTKSWNLQNGERANVVIAFNAATNVLTVTLTYP", "Lectin alpha chain": "VTSYTLNEVVPLKDVVPEWVRIGFSATTGAEFAAHEVHSWSFHSELGGTSSS"}},
  "format_in_all_cases": "cell-based",
  "key": {"[1]": {"system": "A. hydrophila", "test": "Lectin aggregation of bacterial cells (microtitre wells, semi-quantitative score)", "design": "key: Where the addition of lectins did not cause the aggregation of cells, a score of “0” was assigned; Lectins that caused cellular-aggregation to give small flocs in a turbid suspension were given a score of “+”; A score of “++” was given to lectin-cell aggregate mixes that resulted in large aggregates seen by eye in a turbid suspension; Lectins that caused cellular aggregation to give easily visible aggregates in a clear solution were given a score of “+++”", "conditions": "cells O.D. 0.5 at 650 nm", "procedure": "(§1) Assay approach: Six lectins were chosen to discover their suitability for the aggregation of different species of bacteria. These were Concanavalin A, Lentil lectin, Pseudomonas aeruginosa lectin, peanut lectin, Limulus polyphemus lectin and wheat germ lectin.\n(§2) The ability of the lectins to aggregate bacterial cells was studied by mixing cells at an O.D. of 0.5 at 650 nm with different lectins at different concentrations. The extent of aggregation was determined by a semi-quantitative approach. […] Lectins that caused cellular-aggregation to give small flocs in a turbid suspension were given a score of “+”. […] Lectins that caused cellular aggregation to give easily visible aggregates in a clear solution were given a score of “+++”."}, "[2]": {"system": "E. asburiae", "test": "Lectin aggregation of bacterial cells (microtitre wells, semi-quantitative score)", "design": "key: Where the addition of lectins did not cause the aggregation of cells, a score of “0” was assigned; Lectins that caused cellular-aggregation to give small flocs in a turbid suspension were given a score of “+”; A score of “++” was given to lectin-cell aggregate mixes that resulted in large aggregates seen by eye in a turbid suspension; Lectins that caused cellular aggregation to give easily visible aggregates in a clear solution were given a score of “+++”", "conditions": "cells O.D. 0.5 at 650 nm", "procedure": "as §1, §2"}, "[3]": {"system": "K. oxytoca", "test": "Lectin aggregation of bacterial cells (microtitre wells, semi-quantitative score)", "design": "key: Where the addition of lectins did not cause the aggregation of cells, a score of “0” was assigned; Lectins that caused cellular-aggregation to give small flocs in a turbid suspension were given a score of “+”; A score of “++” was given to lectin-cell aggregate mixes that resulted in large aggregates seen by eye in a turbid suspension; Lectins that caused cellular aggregation to give easily visible aggregates in a clear solution were given a score of “+++”", "conditions": "cells O.D. 0.5 at 650 nm", "procedure": "as §1, §2"}, "[4]": {"system": "P. putida", "test": "Lectin aggregation of bacterial cells (microtitre wells, semi-quantitative score)", "design": "key: Where the addition of lectins did not cause the aggregation of cells, a score of “0” was assigned; Lectins that caused cellular-aggregation to give small flocs in a turbid suspension were given a score of “+”; A score of “++” was given to lectin-cell aggregate mixes that resulted in large aggregates seen by eye in a turbid suspension; Lectins that caused cellular aggregation to give easily visible aggregates in a clear solution were given a score of “+++”", "conditions": "cells O.D. 0.5 at 650 nm", "procedure": "as §1, §2"}, "[5]": {"system": "Pseudomonas sp. Strain 2881", "test": "Titration of ConA against bacterial suspension, aggregate size measured", "conditions": "within 5.0% S.E.", "procedure": "Aggregates of different size were constructed by titrating cona against suspensions of bacteria and observing the formation of aggregates. These were visible by eye as well as by optical microscope (FIG. 1).\nAggregate size was measured. A parabolic relationship between the ratio of ConA and bacterial density was observed (Table 3). […] This hypothesis reflects that established for antibody:antigen precipitation reactions.\nWithin an optimal range of […] and 0.6 mg/ml ConA, bacterial aggregates of 10 to >100 μm diameter could be reproducibly formed with a lectin excess that enabled further bacteria to be sequestered to the surface of the aggregate. The aggregates could be readily disassociated by the addition of approximately 50 mM maltose, glucose or sucrose to ConA, followed by 30s of gentle pipetting. This is ideal for the accurate enumeration of viable bacteria based upon CFU measurement on nutrient agar."}, "[6]": {"system": "taxonomically distinct species of bacteria", "test": "Lectins tested for potential to construct bacterial aggregates", "excerpt": "We have selected the lectin Concanavalin A (ConA) as the most preferred (Sigma, Poole, Dorset, UK). Other lectins tested for their potential in the present invention were Wheat Germ Lectin (WGA), lectin from Limulus polyphemus and Peanut Agglutinin (PNA). […] However, ConA was the only lectin that strongly reacted with, and aggregated, over 15 taxonomically distinct species of bacteria. ConA was subsequently deemed the most preferable for use. However, any lectin is suitable for the invention as long as the lectin is capable of agglutinating the desired species.\nas §1, §2"}},
  "data": [
    {"molecule": "Concanavalin A", "values": [
      {"measurement": "extent of aggregation (score)", "setting": "[1]; lectin 1 × 10^−1 mg/mL", "value": "+++"},
      {"measurement": "extent of aggregation (score)", "setting": "[1]; lectin 1 × 10^−2 mg/mL", "value": "++"},
      {"measurement": "extent of aggregation (score)", "setting": "[1]; lectin 1 × 10^−3 mg/mL", "value": "++"},
      {"measurement": "extent of aggregation (score)", "setting": "[2]; lectin 1 × 10^−1 mg/mL", "value": "+"},
      {"measurement": "extent of aggregation (score)", "setting": "[2]; lectin 1 × 10^−2 mg/mL", "value": "+"},
      {"measurement": "extent of aggregation (score)", "setting": "[2]; lectin 1 × 10^−3 mg/mL", "value": 0},
      {"measurement": "extent of aggregation (score)", "setting": "[3]; lectin 1 × 10^−1 mg/mL", "value": "++"},
      {"measurement": "extent of aggregation (score)", "setting": "[3]; lectin 1 × 10^−2 mg/mL", "value": "+"},
      {"measurement": "extent of aggregation (score)", "setting": "[3]; lectin 1 × 10^−3 mg/mL", "value": 0},
      {"measurement": "extent of aggregation (score)", "setting": "[4]; lectin 1 × 10^−1 mg/mL", "value": "+++"},
      {"measurement": "extent of aggregation (score)", "setting": "[4]; lectin 1 × 10^−2 mg/mL", "value": "++"},
      {"measurement": "extent of aggregation (score)", "setting": "[4]; lectin 1 × 10^−3 mg/mL", "value": "+"},
      {"measurement": "Size of aggregate", "setting": "[5]; Amount of ConA 0.001 mg/ml", "value": "No aggregation"},
      {"measurement": "Size of aggregate", "setting": "[5]; Amount of ConA 0.01 mg/ml", "value": 11.2, "unit": "μm"},
      {"measurement": "Size of aggregate", "setting": "[5]; Amount of ConA 0.05 mg/ml", "value": 53.4, "unit": "μm"},
      {"measurement": "Size of aggregate", "setting": "[5]; Amount of ConA 0.1 mg/ml", "value": 106.7, "unit": "μm"},
      {"measurement": "Size of aggregate", "setting": "[5]; Amount of ConA 0.2 mg/ml", "value": 91.2, "unit": "μm"},
      {"measurement": "Size of aggregate", "setting": "[5]; Amount of ConA 0.4 mg/ml", "value": 73.1, "unit": "μm"},
      {"measurement": "Size of aggregate", "setting": "[5]; Amount of ConA 0.6 mg/ml", "value": 55.4, "unit": "μm"},
      {"measurement": "Size of aggregate", "setting": "[5]; Amount of ConA 0.8 mg/ml", "value": "No aggregation"},
      {"measurement": "Size of aggregate", "setting": "[5]; Amount of ConA 1.0 mg/ml", "value": "No aggregation"},
      {"measurement": "taxonomically distinct species of bacteria strongly reacted with, and aggregated", "setting": "[6]", "value": "over 15"}
    ]},
    {"molecule": "B1", "values": [
      {"measurement": "extent of aggregation (score)", "setting": "[1]; lectin 1 × 10^−1 mg/mL", "value": "+++"},
      {"measurement": "extent of aggregation (score)", "setting": "[1]; lectin 1 × 10^−2 mg/mL", "value": "++"},
      {"measurement": "extent of aggregation (score)", "setting": "[1]; lectin 1 × 10^−3 mg/mL", "value": "++"},
      {"measurement": "extent of aggregation (score)", "setting": "[2]; lectin 1 × 10^−1 mg/mL", "value": 0},
      {"measurement": "extent of aggregation (score)", "setting": "[2]; lectin 1 × 10^−2 mg/mL", "value": 0},
      {"measurement": "extent of aggregation (score)", "setting": "[2]; lectin 1 × 10^−3 mg/mL", "value": 0},
      {"measurement": "extent of aggregation (score)", "setting": "[3]; lectin 1 × 10^−1 mg/mL", "value": "++"},
      {"measurement": "extent of aggregation (score)", "setting": "[3]; lectin 1 × 10^−2 mg/mL", "value": "+"},
      {"measurement": "extent of aggregation (score)", "setting": "[3]; lectin 1 × 10^−3 mg/mL", "value": 0},
      {"measurement": "extent of aggregation (score)", "setting": "[4]; lectin 1 × 10^−1 mg/mL", "value": "+++"},
      {"measurement": "extent of aggregation (score)", "setting": "[4]; lectin 1 × 10^−2 mg/mL", "value": "++"},
      {"measurement": "extent of aggregation (score)", "setting": "[4]; lectin 1 × 10^−3 mg/mL", "value": "+"}
    ]}
  ]
}
